Reference: PMC8660055

Legend:
[1] = target: PDCoV S1 protein (porcine deltacoronavirus (PDCoV)); assay: ELISA
[2] = target: PDCoV S2 protein (porcine deltacoronavirus (PDCoV)); assay: ELISA

Griffithsin (from UniProt P84801 1-121) (natural protein)
OD450 reached in ELISA [1]: 3.68 OD450 | OD450 reached in ELISA [2]: 1.93 OD450
